Among the targets are CD3 epsilon (human) (UniProt P07766); native CD4 (human) (UniProt P01730); CD8/zeta chimera (human) (UniProt P01732); wild-type CD8 protein (UniProt P01732).
What all share (assay): cell-based or functional assay
For assay [1], the target named is Jurkat Ti β chain (human).
Assay [2] has as its target CD4-zeta chimeric receptor F2 (human) (UniProt P01730).
Assay [3] addresses CD4-zeta chimeric receptor F3 (human) (UniProt P01730).
In assay [4] the target is human HLA Class 1 antigens.

Five molecules from patent publication US6407221 can be followed below.

Chain of UniProt P01732 (P01732 other isoform, or with tags, fused parts or gaps mutant): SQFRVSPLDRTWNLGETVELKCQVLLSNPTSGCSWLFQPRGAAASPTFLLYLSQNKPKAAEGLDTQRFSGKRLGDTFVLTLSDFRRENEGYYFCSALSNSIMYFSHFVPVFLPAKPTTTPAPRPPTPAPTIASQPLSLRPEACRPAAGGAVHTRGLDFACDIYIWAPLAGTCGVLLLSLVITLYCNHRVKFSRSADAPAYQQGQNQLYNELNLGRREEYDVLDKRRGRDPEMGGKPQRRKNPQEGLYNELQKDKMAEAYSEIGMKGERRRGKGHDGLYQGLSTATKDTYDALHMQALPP

As for C305 (antibody), in assay [1], the IL-2 (Units/ml), JCD8/zeta 2, C305 + PMA, experiment #1 was 3.7 Units/ml; the IL-2 (Units/ml), JCD8/zeta 2, C305 + PMA, experiment #2 was determined as 2.1 Units/ml; the IL-2 (Units/ml), Jurkat CD8, C305 + PMA, experiment #1 was found to be 13.5 Units/ml; the IL-2 (Units/ml), Jurkat CD8, C305 + PMA, experiment #2 came out at 9.1 Units/ml. Also, in assay [1], the internalization of the TCR after overnight incubation of JCD8/zeta 2 with saturating C305 worked out at 94%.
In the assay with CD3 epsilon (human), OKT3 (antibody) came in with an IL2 produced relative to stimulation with Ionomycin, Jurkat clone CD4/1F7 (relative to Ionomycin = 100) of 38; an IL2 produced relative to stimulation with Ionomycin, Jurkat clone CD4/4.1 (relative to Ionomycin = 100) of 65; an IL2 produced relative to stimulation with Ionomycin, Jurkat clone F2/1A11 (relative to Ionomycin = 100) of 51; an IL2 produced relative to stimulation with Ionomycin, Jurkat clone F2/1D1 (relative to Ionomycin = 100) of 59. In the assay with CD3 epsilon (human), this molecule registered an IL2 produced relative to stimulation with Ionomycin, Jurkat clone F3/2.2 (relative to Ionomycin = 100) of 65; an IL2 produced relative to stimulation with Ionomycin, Jurkat clone F3/2.7 (relative to Ionomycin = 100) of 92; an absolute level of IL2 produced, Jurkat clone CD4/1F7 of 2100 pg/mL; an absolute level of IL2 produced, Jurkat clone CD4/4.1 of 309 pg/mL. Also, in the assay with CD3 epsilon (human), the absolute level of IL2 produced, Jurkat clone F2/1A11 was 918 pg/mL; the absolute level of IL2 produced, Jurkat clone F2/1D1 was found to be 671 pg/mL; the absolute level of IL2 produced, Jurkat clone F3/2.2 is 481 pg/mL; the absolute level of IL2 produced, Jurkat clone F3/2.7 stood at 295 pg/mL.
As to OKT4A (antibody), in assay [2], the IL2 produced relative to stimulation with Ionomycin, Jurkat clone F2/1A11 (relative to Ionomycin = 100) turned out to be 86; the IL2 produced relative to stimulation with Ionomycin, Jurkat clone F2/1D1 (relative to Ionomycin = 100) is 60; the absolute level of IL2 produced, Jurkat clone F2/1A11 was found to be 543 pg/mL; the absolute level of IL2 produced, Jurkat clone F2/1D1 was 683 pg/mL. Further, in assay [3], the IL2 produced relative to stimulation with Ionomycin, Jurkat clone F3/2.2 (relative to Ionomycin = 100) was 160; the IL2 produced relative to stimulation with Ionomycin, Jurkat clone F3/2.7 (relative to Ionomycin = 100) is 210; the absolute level of IL2 produced, Jurkat clone F3/2.2 turned out to be 1200 pg/mL; the absolute level of IL2 produced, Jurkat clone F3/2.7 came to 671 pg/mL. In the assay with native CD4 (human), the IL2 produced relative to stimulation with Ionomycin, Jurkat clone CD4/1F7 (relative to Ionomycin = 100) came out at 0.3; the IL2 produced relative to stimulation with Ionomycin, Jurkat clone CD4/4.1 (relative to Ionomycin = 100) worked out at 2; the absolute level of IL2 produced, Jurkat clone CD4/1F7 was found to be 19 pg/mL; the absolute level of IL2 produced, Jurkat clone CD4/4.1 amounted to 9 pg/mL.
In assay [4], W6/32 (antibody) had an IL2 produced relative to stimulation with Ionomycin, Jurkat clone CD4/1F7 (relative to Ionomycin = 100) of 0.1; an IL2 produced relative to stimulation with Ionomycin, Jurkat clone CD4/4.1 (relative to Ionomycin = 100) of 0.7; an IL2 produced relative to stimulation with Ionomycin, Jurkat clone F2/1A11 (relative to Ionomycin = 100) of 10; an IL2 produced relative to stimulation with Ionomycin, Jurkat clone F2/1D1 (relative to Ionomycin = 100) of 11. Moreover, in assay [4], the IL2 produced relative to stimulation with Ionomycin, Jurkat clone F3/2.2 (relative to Ionomycin = 100) stood at 3; the IL-2 (Units/ml), JCD8/zeta 2, W6/32 + PMA, experiment #1 is under 0.1 Units/ml; the IL-2 (Units/ml), JCD8/zeta 2, W6/32 + PMA, experiment #2 is under 0.1 Units/ml; the IL-2 (Units/ml), Jurkat CD8, W6/32 + PMA, experiment #1 was under 0.1 Units/ml. Further, in assay [4], the IL-2 (Units/ml), Jurkat CD8, W6/32 + PMA, experiment #2 was under 0.1 Units/ml; the absolute level of IL2 produced, Jurkat clone CD4/1F7 stood at 3 pg/mL; the absolute level of IL2 produced, Jurkat clone CD4/4.1 worked out at 3 pg/mL; the absolute level of IL2 produced, Jurkat clone F2/1A11 was 104 pg/mL. In addition, in assay [4], the absolute level of IL2 produced, Jurkat clone F2/1D1 turned out to be 123 pg/mL; the absolute level of IL2 produced, Jurkat clone F3/2.2 turned out to be 19 pg/mL; the absolute level of IL2 produced, Jurkat clone F3/2.7 stood at 0 pg/mL.

B1: OKT8 (antibody, from another filing, V domains shown)
VH: EVQLQQSGAELVKPGASVKLSCTASGFNIKDTYIHFVRQRPEQGLEWIGRIDPANDNTLYASKFQGKATITADTSSNTAYMHLCSLTSGDTAVYYCGRGYGYYVFDHWGQGTTLTVSS
VL: DVQINQSPSFLAASPGETITINCRTSRSISQYLAWYQEKPGKTNKLLIYSGSTLQSGIPSRFSGSGSGTDFTLTISGLEPEDFAMYYCQQHNENPLTFGAGTKLELK
In the case of B1, in the assay with CD8/zeta chimera (human), the IL-2 (Units/ml), JCD8/zeta 2, OKT8 + PMA, experiment #1 came out at 6.8 Units/ml and the IL-2 (Units/ml), JCD8/zeta 2, OKT8 + PMA, experiment #2 was determined as 7 Units/ml. Moreover, in the assay with wild-type CD8 protein, the IL-2 (Units/ml), Jurkat CD8, OKT8 + PMA, experiment #1 was under 0.1 Units/ml and the IL-2 (Units/ml), Jurkat CD8, OKT8 + PMA, experiment #2 was under 0.1 Units/ml.
